Residue numbers refer to the chain shown, from its start.
B1: ZalH4-9-A (antibody, human IgG1, kappa, V domains shown)
VH: QVQLVESGGGVVQPGRSLRLSCAASGFTFSTYGMHWVRQAPGKGLEWVAVIWDDGSYKYYGDSVKGRFTISRDNSKNTLYLQMNSLRAEDTAVYYCARDGVTMVRGVMKDYFDYWGQGTLVTVSS
VL: DIQLTQSPSSLSASVGDRVTITCRASQDISSALVWYQQKPGKAPKLLIYDASSLESGVPSRFSGSESGTDFTLTISSLQPEDFATYYCQQFNSYPLTFGGGTKVEIKR
modifications: compound 9-A coupled to reduced cysteines of the antibody (chains and sites not stated), average DAR n=5.94
notes: also called EGFR monoclonal antibody ADC
B2: ZalH4 (antibody, human IgG1, kappa, V domains shown)
VH: B1 VH
VL: B1 VL
notes: anti-EGFR zalutumumab variant, human IgG1; also called EGFR monoclonal antibody ZalH4
B3: ChiF4-18 (antibody, human IgG1, kappa, V domains shown)
VH: EVQLQQSGAELVRPGSSVKMSCKTSGYTFTSYGINWVKQRPGQGLEWIGYIYLGSDYTEYNEKFKGKATLTSDTTSSTAYMQLSSLTSEDSAIYFCARSAGSLFAYWGQGTLVTVSA
VL: DIQLTQSPSSLSASLGERVSLTCRASQDIGITLNWLQQEPDGTIKRLIYATSSLDSGVPKRFSGSRSGSDYSLTISSLESEDFVDYYCLQYASSPYTFGGGTKLEIKR
notes: murine variable regions on human IgG1 constant regions; also called chimeric antibody of F4-18
B4: ChiF4-1 (antibody, human IgG1, kappa, V domains shown)
VH: QIQLQQSGPELVKPGASVKISCKASGYTFTDNYINWVKQRPGQGLEYIGWIYPGSGNNKFNEKFKGKATLTVDTSSRTAFMQLSSLTFEDSAVYFCARDYPFPSYHYGMDYWGQGTSVTVSS
VL: QILLTQSPAIMSASPGERVTITCSASSSVSYIHWFQQKPGTSPKLWIYSTSNLASGVPPRFSGSGSGTSFSLTVSRMEAEDAATYYCQQRSSYPPTFGGGTKLEIKR
notes: murine variable regions on human IgG1 constant regions; also called chimeric antibody of F4-1
B5: ChiM4 (antibody, human IgG1, kappa, V domains shown)
VH: QVQLQQSGAELARPGASVKLSCKASGYSFTTYGVPWVKQRTGQGLEWIGDIYPRSGNTYYNEKFKGKATLTADKSSDTVFMELRSLSSEDSAVYFCAREDYDNYPYALDYWGQGTSVTVSS
VL: EIVLTQSPAIIAASPGEKVTITCSASSSVFNMNWYQQKPGSSPKIWIYDISKLASGVPGRFSGSGSGTSFSLTINSMEAEDVGTYYCQQRSFYPPTFGGGTKVEIKR
notes: murine variable regions on human IgG1 constant regions; also called chimeric antibody of M4
B6: ChiM6 (antibody, human IgG1, kappa, V domains shown)
VH: QVQLQQSGAELMKPGASVKLSCKATGYRFIPYWIEWIKERPGHGLEWIGEILPGTGRTNYNEKFKGKATFTADTSSNTAYMQLSSLTTEDSAIYYCARYGDDTSGGYYAVDYWGQGTSVTVSS
VL: DIVMTQSSASLAMSLGQRATISCRASESVNILGTNLIHWYQQKPGQPPKLLIYHASNLETGVPARFSGSGSRTDFTLTIDPVEEDDVAIYYCLQSRKIPWTFGGGTKLEIKR
notes: murine variable regions on human IgG1 constant regions; also called chimeric antibody of M6
B7: F4-18 (antibody of hybridoma 36G9) (antibody, V domains shown)
VH: B3 VH
VL: DIQLTQSPSSLSASLGERVSLTCRASQDIGITLNWLQQEPDGTIKRLIYATSSLDSGVPKRFSGSRSGSDYSLTISSLESEDFVDYYCLQYASSPYTFGGGTKLEIK
notes: murine antibody tested as hybridoma supernatant; also called hybridoma supernatant 36G9
B8: F4-1 (antibody of hybridoma 3H6) (antibody, V domains shown)
VH: B4 VH
VL: QILLTQSPAIMSASPGERVTITCSASSSVSYIHWFQQKPGTSPKLWIYSTSNLASGVPPRFSGSGSGTSFSLTVSRMEAEDAATYYCQQRSSYPPTFGGGTKLEIK
notes: murine antibody tested as hybridoma supernatant; also called hybridoma supernatant 3H6
B9: M4 (antibody of hybridoma 17F3) (antibody, V domains shown)
VH: B5 VH
VL: EIVLTQSPAIIAASPGEKVTITCSASSSVFNMNWYQQKPGSSPKIWIYDISKLASGVPGRFSGSGSGTSFSLTINSMEAEDVGTYYCQQRSFYPPTFGGGTKVEIK
notes: murine antibody tested as hybridoma supernatant; also called hybridoma supernatant 17F3
B10: ZalH2 (antibody, human IgG1, kappa, V domains shown)
VH: B1 VH with D53E, V101I
VL: B1 VL
notes: anti-EGFR zalutumumab variant, human IgG1
B11: ZalH8 (antibody, human IgG1, kappa, V domains shown)
VH: B1 VH with T31S, V101L
VL: B1 VL
notes: as for B10
B12: ZalH10 (antibody, human IgG1, kappa, V domains shown)
VH: B1 VH with T31S, V101A
VL: B1 VL
notes: as for B10
B13: ZalH7 (antibody, human IgG1, kappa, V domains shown)
VH: B1 VH with T31S, D53E, V101I
VL: B1 VL
notes: as for B10
B14: ZalH12 (antibody, human IgG1, kappa, V domains shown)
VH: B1 VH with Y57N, V101I
VL: B1 VL
notes: as for B10
B15: ZalH3 (antibody, human IgG1, kappa, V domains shown)
VH: B1 VH with V101L
VL: B1 VL
notes: as for B10
B16: ZalH13 (antibody, human IgG1, kappa, V domains shown)
VH: B1 VH with T31S, G33A, V101I
VL: B1 VL
notes: as for B10
B17: ZalH14 (antibody, human IgG1, kappa, V domains shown)
VH: B1 VH with D53Y, Y57N, G61A, V101I
VL: B1 VL
notes: as for B10
B18: ZalH5 (antibody, human IgG1, kappa, V domains shown)
VH: B1 VH with V101A
VL: B1 VL
notes: as for B10
B19: ZalH9 (antibody, human IgG1, kappa, V domains shown)
VH: B1 VH with T31S
VL: B1 VL
notes: as for B10
B20: M4H1L1-ZalH′ (bispecific antibody, human IgG1, kappa)
heavy: not shown
light: DIQMTQSPSSLSASVGDRVTITCSASSSVFNMNWYQQKPGKSPKLWIYDISKLASGVPSRFSGSGSGTDFTLTISSLQPEDFATYYCQQRSFYPPTFGGGTKVEIKRTVAAPSVFIFPPSDEQLKSGTASVVCLLNNFYPREAKVQWKVDNALQSGNSQESVTEQDSKDSTYSLSSTLTLSKADYEKHKVYACEVTHQGLSSPVTKSFNRGEC
chain 1: not shown
chain 2: DIQLTQSPSSLSASVGDRVTITCRASQDISSALVWYQQKPGKAPKLLIYDASSLESGVPSRFSGSESGTDFTLTISSLQPEDFATYYCQQFNSYPLTFGGGTKVEIKGGGGSSGAPRFLTRPKASVVSVGKDATLSCQIVGNPFPQVSWEKDKQPVTAGVRFRLAQDGDLYRLKILDLQLSDSGQYVCRARNAHGEAFACLGLQVDAEA
notes: 1:1 format: MUC1 Fab arm with Fc knob; EGFR arm VH-linker-Titin-Fc hole paired with VL-linker-Obscurin; also called anti-EGFR-MUC1 bispecific antibody
B21: M4H1L1-ZalH10 (bispecific antibody, human IgG1, kappa)
heavy: not shown
light: B20 light
chain 1: not shown
chain 2: B20 chain 2
notes: as for B20
B22: M4H1L1-ZalH8 (bispecific antibody, human IgG1, kappa)
heavy: not shown
light: B20 light
chain 1: not shown
chain 2: B20 chain 2
notes: as for B20
B23: M4H1L1-ZalH13 (bispecific antibody, human IgG1, kappa)
heavy: not shown
light: B20 light
chain 1: not shown
chain 2: B20 chain 2
notes: as for B20

biological target: T1, human EGFR as expressed on tumour cell lines (HCC827, T47D, HPAC) (human, UniProt P00533 25-1210); test: FACS, HPAC
T1 construct: whole, on cells; the cell line is named under assay; also called HCC827 cells; T47D cells

Q: How did the Emax turn out when B1 was run?
A: Its Emax is 14400.

Q: With B2 as the binder, how does the Emax read?
A: The Emax was 13000.

biological target: T1, human EGFR as expressed on tumour cell …; test: FACS, HCC827

Q: With B1 as the binder, how does the Emax read?
A: The Emax was 31700.

Q: How did the Emax turn out when B2 was run?
A: Its Emax is 37600.

biological target: T2, cyno MUC1-C on stably transfected CHOK1 cells (cyno); test: FACS, CHOK1-cyno-MUC1-C
T2 construct: domain: MUC1-C; also called CHOK1-cyno-MUC1-C cells; Monkey MUC1-CT

Q: Which Emax does the source give for B3 here?
A: The Emax was 79800.

Q: With B4 as the binder, how does the Emax read?
A: The Emax was 41700.

Q: With B5 as the binder, how does the Emax read?
A: Its Emax is 79500.

Q: With B6 as the binder, how does the Emax read?
A: Its Emax is 70900.

biological target: T3, MUC1-C-L-6×His (His-tagged human MUC1-C protein extracellular domain) (human, UniProt P15941 961-1152); test: ELISA, coated antigen, hybridoma supernatant
T3 construct: template human MUC1 UniProt P15941; expressed in 293 cells; also called hMUC1-C-L-his; MUC1-C-L-His

Q: For B7, which OD450 nm is on record?
A: The OD450 nm was 2.05.

Q: How did the OD450 nm turn out when B8 was run?
A: The OD450 nm was 2.33.

Q: With B9 as the binder, how does the OD450 nm read?
A: The OD450 nm was 1.9.

biological target: T4, human EGFR-His antigen (human, UniProt P00533 25-645); test: SPR Biacore 8K, antibody on Protein A chip, 1:1 fit
T4 construct: also called hEGFR-His

Q: Which results are given for B10?
A: Kd: 92.9 nM; koff: 0.00812 s⁻¹; kon: 87400 M⁻¹ s⁻¹

Q: What does the source list for B11?
A: Kd: 483 nM; koff: 0.0369 s⁻¹; kon: 76500 M⁻¹ s⁻¹

Q: What does the source list for B12?
A: Kd: 133 nM; koff: 0.0174 s⁻¹; kon: 131000 M⁻¹ s⁻¹

Q: How did the Kd turn out when B13 was run?
A: The Kd was 95.7 nM.

Q: And the koff?
A: Its koff is 0.00761 s⁻¹.

Q: What about the kon of the same binder?
A: The kon was 79500 M⁻¹ s⁻¹.

Q: Which Kd does the source give for B14 here?
A: Its Kd is 120 nM.

Q: And the koff?
A: Its koff is 0.0144 s⁻¹.

Q: And the kon?
A: Its kon is 120000 M⁻¹ s⁻¹.

Q: For B15, which Kd is on record?
A: The Kd was 302 nM.

Q: And the koff?
A: The koff was 0.0243 s⁻¹.

Q: And the kon?
A: Its kon is 80500 M⁻¹ s⁻¹.

Q: Which results are given for B16?
A: Kd: 1.96 nM; koff: 0.000187 s⁻¹; kon: 95500 M⁻¹ s⁻¹

Q: B2 was tested. Which Kd did it give?
A: The Kd was 44.3 nM.

Q: Which results are given for B17?
A: Kd: 210 nM; koff: 0.0275 s⁻¹; kon: 131000 M⁻¹ s⁻¹

Q: With B18 as the binder, how does the Kd read?
A: The Kd was 96.4 nM.

Q: What about the koff of the same binder?
A: The koff was 0.0125 s⁻¹.

Q: And the kon?
A: Its kon is 129000 M⁻¹ s⁻¹.

Q: What does the source list for B19?
A: Kd: 51.6 nM; koff: 0.00234 s⁻¹; kon: 45400 M⁻¹ s⁻¹

biological target: T4, human EGFR-His antigen; test: as above; remark: another data set of the same source

Q: With B20 as the binder, how does the Kd read?
A: The Kd was 4.13 nM.

Q: And the koff?
A: Its koff is 0.00072 s⁻¹.

Q: What about the kon of the same binder?
A: The kon was 174000 M⁻¹ s⁻¹.

Q: What does the source list for B21?
A: Kd: 56.4 nM; koff: 0.0113 s⁻¹; kon: 201000 M⁻¹ s⁻¹

Q: With B22 as the binder, how does the Kd read?
A: Its Kd is 162 nM.

Q: And the koff?
A: Its koff is 0.0275 s⁻¹.

Q: And the kon?
A: The kon was 171000 M⁻¹ s⁻¹.

Q: How did the Kd turn out when B23 was run?
A: The Kd was 0.163 nM.

Q: And the koff?
A: Its koff is 4.57e-05 s⁻¹.

Q: What about the kon of the same binder?
A: Its kon is 280000 M⁻¹ s⁻¹.

biological target: T4, human EGFR-His antigen; test: SPR Biacore T200, antibody on Protein A chip, 1:1 fit

Q: Which Kd does the source give for B2 here?
A: The Kd was 33 nM.

biological target: T5, cynomolgus EGFR-his (Cat. #90285-C08H, Sino Biological) (cynomolgus, UniProt A0A2K5WK39 25-645); test: as above
T5 construct: bought reagent; also called Cyno EGFR-His

Q: B2 was tested. Which Kd did it give?
A: The Kd was 477 nM.
